The source of these data is article PMC3858281, “Structural Characterisation of the Nuclear Import Receptor Importin Alpha in Complex with the Bipartite NLS of Prp20” (PLoS ONE, 2013).

The target in the assay is Mouse IMPαΔIBB (residues 70–529) (mouse, UniProt P52293 70-529). The assay is described as follows: crystal structure; complex of IMPαΔIBB and Prp20 NLS (GST tag removed by thrombin) in 20 mM Tris pH 7.8, 125 mM NaCl, 20 mg/mL; crystals in 500 mM sodium citrate pH 6–8, 10 mM DTT; 2.1 Å. The following applies: both partners purified.

B1: Prp20 (S. cerevisiae RanGEF) NLS (residues 3–23) (peptide)
chain: KRTVATNGDASGAHRAKKMSK
notes: Prp20 (RanGEF), S. cerevisiae, bipartite NLS, residues 3-23; Only KR4 and RAKKMSK23 are in the final model; also called Prp20 NLS; Prp20NLS
With B1, the binding result is reported as “binds”.
